Results from PMC3064766 (Nucleic Acids Research, 2010).

How the values were obtained:
myc-tagged Cbp80p = target: T1, myc-tagged Cbp80p (S. cerevisiae, UniProt P34160 1-861); assay: pull-down
T1 sequence (looked up): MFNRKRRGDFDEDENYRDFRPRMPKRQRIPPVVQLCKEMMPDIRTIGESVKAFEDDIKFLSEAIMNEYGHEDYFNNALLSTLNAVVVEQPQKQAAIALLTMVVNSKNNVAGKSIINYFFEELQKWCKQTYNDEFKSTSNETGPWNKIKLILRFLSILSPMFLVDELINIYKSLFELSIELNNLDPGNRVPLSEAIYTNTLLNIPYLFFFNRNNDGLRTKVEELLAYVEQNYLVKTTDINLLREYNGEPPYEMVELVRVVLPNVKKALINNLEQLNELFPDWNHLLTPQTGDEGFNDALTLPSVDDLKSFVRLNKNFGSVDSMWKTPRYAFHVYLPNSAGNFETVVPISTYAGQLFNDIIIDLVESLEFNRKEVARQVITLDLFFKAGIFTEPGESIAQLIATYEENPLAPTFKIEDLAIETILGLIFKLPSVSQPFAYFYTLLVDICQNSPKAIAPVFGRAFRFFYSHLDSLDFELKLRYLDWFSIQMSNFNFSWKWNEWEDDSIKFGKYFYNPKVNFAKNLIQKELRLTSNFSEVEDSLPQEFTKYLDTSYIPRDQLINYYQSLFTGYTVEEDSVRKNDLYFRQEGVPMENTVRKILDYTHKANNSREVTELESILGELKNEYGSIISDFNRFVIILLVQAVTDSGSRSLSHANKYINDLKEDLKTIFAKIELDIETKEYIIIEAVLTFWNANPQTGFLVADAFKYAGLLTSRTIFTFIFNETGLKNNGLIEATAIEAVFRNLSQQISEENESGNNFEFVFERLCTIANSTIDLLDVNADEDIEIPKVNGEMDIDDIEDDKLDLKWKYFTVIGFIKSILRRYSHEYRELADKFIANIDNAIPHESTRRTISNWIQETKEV

myc-tagged Mot1p = myc-tagged Mot1p (S. cerevisiae, UniProt P32333 1-1867); assay: co-IP
Sequence of myc-tagged Mot1p (P32333 whole entry): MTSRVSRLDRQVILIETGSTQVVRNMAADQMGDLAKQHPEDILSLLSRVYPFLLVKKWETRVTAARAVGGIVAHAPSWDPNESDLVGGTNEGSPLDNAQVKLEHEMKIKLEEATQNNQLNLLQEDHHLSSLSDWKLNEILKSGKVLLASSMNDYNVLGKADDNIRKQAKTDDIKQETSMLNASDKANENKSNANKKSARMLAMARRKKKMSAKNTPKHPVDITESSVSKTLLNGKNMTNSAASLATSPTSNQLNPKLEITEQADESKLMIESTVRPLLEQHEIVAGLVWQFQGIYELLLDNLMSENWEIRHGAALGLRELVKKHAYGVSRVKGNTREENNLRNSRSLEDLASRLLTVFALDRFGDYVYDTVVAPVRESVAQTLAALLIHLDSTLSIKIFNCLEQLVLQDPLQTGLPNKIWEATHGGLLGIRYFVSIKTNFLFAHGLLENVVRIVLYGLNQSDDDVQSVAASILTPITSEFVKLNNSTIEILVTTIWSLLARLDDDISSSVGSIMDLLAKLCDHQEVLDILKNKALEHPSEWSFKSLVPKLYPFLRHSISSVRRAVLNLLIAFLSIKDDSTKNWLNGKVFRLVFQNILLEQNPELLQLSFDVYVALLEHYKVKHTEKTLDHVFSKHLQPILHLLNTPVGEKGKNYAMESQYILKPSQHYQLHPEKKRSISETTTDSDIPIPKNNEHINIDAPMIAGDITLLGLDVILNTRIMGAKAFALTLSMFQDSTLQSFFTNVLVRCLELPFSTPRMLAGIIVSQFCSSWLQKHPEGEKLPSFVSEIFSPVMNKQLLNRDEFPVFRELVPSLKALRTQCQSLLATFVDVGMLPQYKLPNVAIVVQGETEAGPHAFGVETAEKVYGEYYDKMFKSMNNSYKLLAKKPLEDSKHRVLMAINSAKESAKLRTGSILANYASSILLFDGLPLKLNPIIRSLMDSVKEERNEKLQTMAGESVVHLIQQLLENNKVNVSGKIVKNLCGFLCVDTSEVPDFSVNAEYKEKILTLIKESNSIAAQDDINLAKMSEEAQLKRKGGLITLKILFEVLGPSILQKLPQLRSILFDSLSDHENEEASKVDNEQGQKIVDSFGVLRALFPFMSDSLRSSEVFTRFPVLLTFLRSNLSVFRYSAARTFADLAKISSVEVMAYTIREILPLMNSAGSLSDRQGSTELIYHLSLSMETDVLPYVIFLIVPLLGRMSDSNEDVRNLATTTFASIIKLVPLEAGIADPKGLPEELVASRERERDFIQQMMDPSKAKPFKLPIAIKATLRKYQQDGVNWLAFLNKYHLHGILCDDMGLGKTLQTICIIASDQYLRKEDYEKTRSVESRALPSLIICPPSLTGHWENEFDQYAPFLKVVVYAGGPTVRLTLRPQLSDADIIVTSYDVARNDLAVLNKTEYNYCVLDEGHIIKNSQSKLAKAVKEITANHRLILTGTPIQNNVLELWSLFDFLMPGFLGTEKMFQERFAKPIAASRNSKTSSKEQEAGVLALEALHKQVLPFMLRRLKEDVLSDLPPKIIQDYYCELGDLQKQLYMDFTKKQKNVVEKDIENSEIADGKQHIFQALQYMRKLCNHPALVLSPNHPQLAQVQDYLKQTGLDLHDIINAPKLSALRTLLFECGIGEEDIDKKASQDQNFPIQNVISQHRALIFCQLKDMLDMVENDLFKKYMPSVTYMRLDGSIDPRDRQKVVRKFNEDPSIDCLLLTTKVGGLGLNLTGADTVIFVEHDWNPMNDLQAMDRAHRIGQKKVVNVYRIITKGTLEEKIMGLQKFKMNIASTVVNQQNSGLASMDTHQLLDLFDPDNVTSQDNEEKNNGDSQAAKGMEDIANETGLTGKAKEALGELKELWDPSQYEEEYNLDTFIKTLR

binding result (myc-tagged Cbp80p): binds | binding result (myc-tagged Mot1p): binds
B1: HA-tagged Cbp20p (natural protein, S. cerevisiae, UniProt Q08920 1-208, looked up)
chain: MSLEEFDEVKYDHSTKRLDTPSRYLLRKARRNPNGLQELRESMKSSTIYVGNLSFYTSEEQIYELFSKCGTIKRIIMGLDRFKFTPCGFCFIIYSCPDEALNALKYLSDTKLDEKTITIDLDPGFEDGRQFGRGKSGGQVSDELRFDFDASRGGFAIPFAERVGVPHSRFDNSSSQSNTNNYIPPPDAMGTFRPGFDEEREDDNYVPQ
